B1: Azoarcus group I ribozyme (parent)
chain: GUGCCUUGCGCCGGGAAACCACGCAAGGGAUGGUGUCAAAUUCGGCGAAACCUAAGCGCCCGCCCGGGCGUAUGGCAACGCCGAGCCAAGCUUCGGCGCCUGCGCCGAUGAAGGUGUAGAGACUAGACGGCACCCACCUAAGGCAAACGCUAUGGUGAAGGCAUAGUCCAGGGAGUGGCGAAAGUCACACAAACCGG

Variants of B1 are the subject of this series. Put plainly: reverse-splicing fitness (ratio to wild type); higher = more active; in vitro selection; Mg2+ level not given. Summed up: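 An in vitro group I ribozyme library with randomized positions was T7-transcribed and gel-purified. In triplicate, 10 pmol RNA in EPPS pH 7.5 was reacted with 50 pmoles of a 30-nt RNA substrate for 1 h at 37 °C across several added MgCl2 levels (1–48 mM), then stopped with EDTA. Products were reverse transcribed from a substrate-complementary primer, PCR-amplified and sequenced (HiSeq 4000). Fitness is a variant's read proportion after selection over that before, normalised to wild type.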
In the case of GUGCCUUGCGCCGGGAAACCACGCAAGGGAUGGUGUCAAAUUCGGCGAAACCUAAGCGCCCGCCCGGGCGUAUGGCAACGCAGAGCCAAGCUUCGGCGCCUGCGCCGAUGCAGGUGUAGAGACUAGACGGCACCCACCUAAGGCGAACGAUAUGGUGAAGGCAUAGUCUAGGGAGUGGCGAAAGUCACACAAACCGG [C82A A111C A145G C150A C169U], the reverse-splicing fitness came out at 0.0111.

In the case of GUGCCUUGCGCCGGGAAACCACGCAAGGGAUGGUGUCAAAUUCGGCGAAACCUAAGCGCCCGCCCGGGCGUAUGGCAACGCAGAGCCAAGCUUCGGCGCCUGCGCCGAUGCAGGUGUAGAGACUAGACGGCACCCACCUAAGGCGAACGAUAUGGUGAAGGCAUAGUCAAGGGAGUGGCGAAAGUCACACAAACCGG [C82A A111C A145G C150A C169A], the reverse-splicing fitness was 0.011.

As to GUGCCUUGCGCCGGGAAACCACGCAAGGGAUGGUGUCAAAUUCGGCGAAACCUAAGCGCCCGCCCGGGCGUAUGGCAACGCAGAGCCAAGCUUCGGCGCCUGCGCCGAUGCAGGUGUAGAGACUAGACGGCACCCACCUAAGGCGAACGAUAUGGUGAAGGCAUAGUCGAGGGAGUGGCGAAAGUCACACAAACCGG [C82A A111C A145G C150A C169G], the reverse-splicing fitness was 0.00824.

Turning to GUGCCUUGCGCCGGGAAACCACGCAAGGGAUGGUGUCAAAUUCGGCGAAACCUAAGCGCCCGCCCGGGCGUAUGGCAACGCAGAGCCAAGCUUCGGCGCCUGCGCCGAUGCAGGUGUAGAGACUAGACGGCACCCACCUAAGGCGAACGCUAUGGUGAAGGCAUAGUCCAGGGAGUGGCGAAAGUCACACAAACCGG [C82A A111C A145G], the reverse-splicing fitness worked out at 0.258.

As to GUGCCUUGCGCCGGGAAACCACGCAAGGGAUGGUGUCAAAUUCGGCGAAACCUAAGCGCCCGCCCGGGCGUAUGGCAACGCAGAGCCAAGCUUCGGCGCCUGCGCCGAUGCAGGUGUAGAGACUAGACGGCACCCACCUAAGGCGAACGAUAUGGUGAAGGCAUAGUCUAGGGAGCGGCGAAAGUCACACAAACCGG [C82A A111C A145G C150A C169U U176C], the reverse-splicing fitness is 0.0158.

Consider GUGCCUUGCGCCGGGAAACCACGCAAGGGAUGGUGUCAAAUUCGGCGAAACCUAAGCGCCCGCCCGGGCGUAUGGCAACGCAGAGCCAAGCUUCGGCGCCUGCGCCGAUGCAGGUGUAGAGACUAGACGGCACCCACCUAAGGCGAACGAUAUGGUGAAGGCAUAGUCUAGGGAGAGGCGAAAGUCACACAAACCGG [C82A A111C A145G C150A C169U U176A], for which the reverse-splicing fitness was determined as 0.0149.

Regarding GUGCCUUGCGCCGGGAAACCACGCAAGGGAUGGUGUCAAAUUCGGCGAAACCUAAGCGCCCGCCCGGGCGUAUGGCAACGCAGAGCCAAGCUUCGGCGCCUGCGCCGAUGCAGGUGUAGAGACUAGACGGCACCCACCUAAGGCGAACGAUAUGGUGAAGGCAUAGUCUAGGGAGGGGCGAAAGUCACACAAACCGG [C82A A111C A145G C150A C169U U176G], the reverse-splicing fitness is 0.00882.

On to GUGCCUUGCGCCGGGAAACCACGCAAGGGAUGGUGUCAAAUUCGGCGAAACCUAAGCGCCCGCCCGGGCGUAUGGCAACGCAGAGCCAAGCUUCGGCGCCUGCGCCGAUGCAGGUGUAGAGACUAGACGGCACCCACCUAAGGCGAACGGUAUGGUGAAGGCAUAGUCUAGGGAGAGGCGAAAGUCACACAAACCGG [C82A A111C A145G C150G C169U U176A], for which the reverse-splicing fitness stood at 0.0112.

With GUGCCUUGCGCCGGGAAACCACGCAAGGGAUGGUGUCAAAUUCGGCGAAACCUAAGCGCCCGCCCGGGCGUAUGGCAACGCAGAGCCAAGCUUCGGCGCCUGCGCCGAUGCAGGUGUAGAGACUAGACGGCACCCACCUAAGGCGAACGGUAUGGUGAAGGCAUAGUCUAGGGAGCGGCGAAAGUCACACAAACCGG [C82A A111C A145G C150G C169U U176C], the reverse-splicing fitness turned out to be 0.0116.

GUGCCUUGCGCCGGGAAACCACGCAAGGGAUGGUGUCAAAUUCGGCGAAACCUAAGCGCCCGCCCGGGCGUAUGGCAACGCAGAGCCAAGCUUCGGCGCCUGCGCCGAUGCAGGUGUAGAGACUAGACGGCACCCACCUAAGGCCAACGCUAUGGUGAAGGCAUAGUCCAGGGAGGGGCGAAAGUCACACAAACCGG [C82A A111C A145C U176G]: the reverse-splicing fitness stood at 0.0188.

Turning to GUGCCUUGCGCCGGGAAACCACGCAAGGGAUGGUGUCAAAUUCGGCGAAACCUAAGCGCCCGCCCGGGCGUAUGGCAACGCAGAGCCAAGCUUCGGCGCCUGCGCCGAUGCAGGUGUAGAGACUAGACGGCACCCACCUAAGGCGAACGGUAUGGUGAAGGCAUAGUCCAGGGAGUGGCGAAAGUCACACAAACCGG [C82A A111C A145G C150G], the reverse-splicing fitness stood at 0.0238.

As for GUGCCUUGCGCCGGGAAACCACGCAAGGGAUGGUGUCAAAUUCGGCGAAACCUAAGCGCCCGCCCGGGCGUAUGGCAACGCAGAGCCAAGCUUCGGCGCCUGCGCCGAUGCAGGUGUAGAGACUAGACGGCACCCACCUAAGGCGAACGAUAUGGUGAAGGCAUAGUCCAGGGAGUGGCGAAAGUCACACAAACCGG [C82A A111C A145G C150A], the reverse-splicing fitness came out at 0.0316.

Consider GUGCCUUGCGCCGGGAAACCACGCAAGGGAUGGUGUCAAAUUCGGCGAAACCUAAGCGCCCGCCCGGGCGUAUGGCAACGCAGAGCCAAGCUUCGGCGCCUGCGCCGAUGCAGGUGUAGAGACUAGACGGCACCCACCUAAGGCGAACGGUAUGGUGAAGGCAUAGUCAAGGGAGGGGCGAAAGUCACACAAACCGG [C82A A111C A145G C150G C169A U176G], for which the reverse-splicing fitness is 0.00877.

For GUGCCUUGCGCCGGGAAACCACGCAAGGGAUGGUGUCAAAUUCGGCGAAACCUAAGCGCCCGCCCGGGCGUAUGGCAACGCAGAGCCAAGCUUCGGCGCCUGCGCCGAUGCAGGUGUAGAGACUAGACGGCACCCACCUAAGGCGAACGGUAUGGUGAAGGCAUAGUCAAGGGAGAGGCGAAAGUCACACAAACCGG [C82A A111C A145G C150G C169A U176A], the reverse-splicing fitness worked out at 0.0119.

GUGCCUUGCGCCGGGAAACCACGCAAGGGAUGGUGUCAAAUUCGGCGAAACCUAAGCGCCCGCCCGGGCGUAUGGCAACGCAGAGCCAAGCUUCGGCGCCUGCGCCGAUGCAGGUGUAGAGACUAGACGGCACCCACCUAAGGCGAACGGUAUGGUGAAGGCAUAGUCAAGGGAGCGGCGAAAGUCACACAAACCGG [C82A A111C A145G C150G C169A U176C]: the reverse-splicing fitness was found to be 0.0134.

The values above are taken from the RNAGym collection of RNA variant scans (doi:10.1093/molbev/msab373).
